Laboratory results taken from patent US11312769B2, “Anti-TMEFF1 antibodies and antibody drug conjugates” (Bluefin BioMedicine, Inc., priority 2017, dated 2022).
Residue numbers refer to the chain shown, from its start. Numbers in names are those of the source.

B1: M35: human anti-TMEFF1 IgG1 antibody; VH SEQ ID NO: 134, VL SEQ ID NO: 138 (antibody, V domains shown)
VH: QVQLQESGPGLVKPSGTLSLTCAVSGGSISSSNWWSWVRQPPGKGLEWIGEIYHSGSTNYNPSLKSRVTISVDKSKNQFSLKLSSVTAADTAVYYCATMVRGRYYYYGMDVWGQGTTVTVSS
VL: DIVMTQSPLSLPVTPGEPASISCRSSQSLLHSDGYNFLDWYLQKPGQSPQFLIYLGSNRASGVPDRFSGVGSGTDFTLQISRVEAEDFGVYYCMQALQAPWTFGQGTKLEIK
B2: 3H9: human anti-TMEFF1 IgG1 antibody; VH SEQ ID NO: 114, VL SEQ ID NO: 117 (antibody, V domains shown)
VH: EVQLVESGGGLVKPGGSLRLSCAASGFVFSYAWMNWVRQAPGKGLEWVGRIKSKTEGGTTDNAAPVKGRFTISREDSKNTLYLQLNSLKIEDTAVYYCTTGRIAAAGFDYWGQGTLVTVSS
VL: DAVVTQESALTTSPGETVTLTCRSSTGTVTTSNYANWVQEKPDHLFTGLIAGTNNRAPGVPARFSGSLIGDKAALTITGAQTEDEAIYFCALWYSNHWVFGGGTKLTVLG
B3: M33F: human anti-TMEFF1 IgG1 antibody; VH SEQ ID NO: 9, VL SEQ ID NO: 141 (antibody, V domains shown)
VH: QVQLQESGPGLVKPSETLSLTCAVSGYSISSGYFWGWIRQPPGKKLEWIGSIYHSGSTYYNPSLKSRVTMSVDTSKNQFSLKLSSVTAADTAVYYCAREGDCSGGICYWYFDLWGRGTLVTVSS
VL: DIQMTQSPSSLSASVGDRVTITCRASQGISNYLAWYQQKPGKVPKLLIYAASTLQSGVPSRFSGSGSGTEVTLTISSLQSEDFAVYYCQQYNKWPLTFGGGTKLEIK
B4: 29C4: human anti-TMEFF1 IgG1 antibody; VH SEQ ID NO: 118, VL SEQ ID NO: 122 (antibody, V domains shown)
VH: QVQLVESGGGVVQPGRSLRLSCAASGFTFSNYGMHWVRQAPGKGLEWVAVIWYDGGPKFYADSVKGRFTISRDNSKNTLYLQMNSLRAEDTAVYYCARSYCGGDCYPFDYWGQGDLVTVSS
VL: DIQMTQSPSSLSASVGDRVTITCRASQGISNYLAWYQQKPGKVPKLLIYAASTLQSGVPSRFSGSGSGTDFTLTISSLQPEDVATYYCQKYYSAPWTFGQGTKVEIK
B5: 37G7: human anti-TMEFF1 IgG1 antibody; VH SEQ ID NO: 85, VL SEQ ID NO: 88 (antibody, V domains shown)
VH: B4 VH with S30T, N31S, I51V, D54E, G56S, P57S, A61V, T69I, S99A, D115T
VL: B4 VL with Y92N
B6: M17: human anti-TMEFF1 IgG1 antibody; VH SEQ ID NO: 79, VL SEQ ID NO: 82 (antibody, V domains shown)
VH: QVQLVESGGGVVQPGRSLRLSCAASGFTFRSYGMHWVRQAPGKGLEWVALIWYDGGDQYYADSVKGRFTISRDSSKSTLYLQMNSLRAEDTAVYYCARAQCGDDCYPFDYWGQGTLVTVSS
VL: B4 VL with S30Y, Y92N, A94D, V104L
B7: 35B1: human anti-TMEFF1 IgG1 antibody; VH SEQ ID NO: 66, VL SEQ ID NO: 70 (antibody, V domains shown)
VH: QVQLVESGGGVVQPGRSLRLSCAASGFTFTTYGMHWVRQAPGKGLEWVAVVWFEGNSKFYIDSVKGRFIISRDNSKNTLFLQMNSLRAEDTAVYYCARANCGADCYPFDYWGQGTLVTVSS
VL: B4 VL with T72S, Q79R, Y92N

System: hTMEFF1-ECD recombinant deletion mutants
Experiment: Binding domain determination with hTMEFF1-ECD deletion mutants (Octet)
Set-up: species or system human; key: FS1—follistatin domain 1; FS2—follistatin domain 2
Conditions: full length TMEFF1 ECD vs ΔFS1, ΔFS2, ΔFS1&FS2
Description: TMEFF1 recombinant proteins expressing 3 different deletion mutants, AFS1 (AFollistatin Domain 1), AFS2 (AFollistatin Domain 2) or AFS1&FS2 were used to identify binding domains among different antibodes using an Octet Red instrument with Anti-Penta-His (HIS 1K) biosensors. Expression of the 3 deletion mutants was confirmed by WB analysis. 100 ngs of purified TMEFF1 ECD was run along with unpurified supernatant of transfected CHO cells with the different deletion mutants. HIS 1K biosensors were loaded by submerging the biosensors into wells containing 10 ug/ml of full length TMEFF1 or one of 3 different deletion mutants (AFS1, AFS2 or AFS1&FS2) for 60 seconds. Following the loading step, the biosensors were then dipped for 30 seconds in PBS before immersion for 30 seconds in 200 ul of unpurified recombinant antibodies for 30 seconds. The biosensors were then dipped briefly (30 seconds) in PBS to observe any dissociation. Samples were determined to show binding or no binding by comparing to a control well that contained no recombinant antibody. Differential binding to the deletion mutants allowed for determination of binding sites on TMEFF1 recombinant protein. For cases where the antibody bound all 3 recombinant proteins, the binding is outside of the deleted domains. For the case where binding is observed only on full length TMEFF1 and AFS2, the antibody is binding in the ΔFS1 domain.
26 of the identified antibodies were checked for epitope domain binding by Octet™ using the hTMEFF1-ECD recombinant deletion mutants (see Table 7, below).

Binding region (epitope domain binding) | Molecule
FS1 | B1
other | B2
other | B3
FS1 | B4
FS1 | B5
FS1 | B6
FS1 | B7
